Reference: article PMC7611026 (Journal of molecular biology, 2008)

Legend:
[1] = target: RNase E(1–762), hexahistidine-tagged, coexpressed with RhlB (E. coli) (UniProt P21513); assay: pull-down + SEC
[2] = target: RNase E, genomically encoded, C-terminally FLAG-tagged (rne-FLAG, strain TM522) (E. coli K12, UniProt P21513 1-1061); assay: co-IP
[3] = target: T1, RhlB, individually prepared recombinant (E. coli, UniProt P0A8J8 1-421); assay: cross-linking
T1 sequence: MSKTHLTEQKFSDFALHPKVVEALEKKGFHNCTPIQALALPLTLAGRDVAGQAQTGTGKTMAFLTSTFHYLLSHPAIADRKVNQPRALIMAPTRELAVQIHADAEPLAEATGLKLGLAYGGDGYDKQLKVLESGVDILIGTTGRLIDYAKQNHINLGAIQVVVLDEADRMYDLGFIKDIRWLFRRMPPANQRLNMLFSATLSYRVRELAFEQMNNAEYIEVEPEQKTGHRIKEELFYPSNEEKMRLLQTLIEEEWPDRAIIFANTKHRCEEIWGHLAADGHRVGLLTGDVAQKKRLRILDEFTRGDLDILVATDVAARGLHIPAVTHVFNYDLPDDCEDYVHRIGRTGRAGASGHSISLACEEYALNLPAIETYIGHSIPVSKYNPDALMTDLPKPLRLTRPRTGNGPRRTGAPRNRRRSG

RNase E, genomically encoded, C-terminally FLAG-tagged (rne-FLAG, strain TM522), sequence (P21513 whole entry): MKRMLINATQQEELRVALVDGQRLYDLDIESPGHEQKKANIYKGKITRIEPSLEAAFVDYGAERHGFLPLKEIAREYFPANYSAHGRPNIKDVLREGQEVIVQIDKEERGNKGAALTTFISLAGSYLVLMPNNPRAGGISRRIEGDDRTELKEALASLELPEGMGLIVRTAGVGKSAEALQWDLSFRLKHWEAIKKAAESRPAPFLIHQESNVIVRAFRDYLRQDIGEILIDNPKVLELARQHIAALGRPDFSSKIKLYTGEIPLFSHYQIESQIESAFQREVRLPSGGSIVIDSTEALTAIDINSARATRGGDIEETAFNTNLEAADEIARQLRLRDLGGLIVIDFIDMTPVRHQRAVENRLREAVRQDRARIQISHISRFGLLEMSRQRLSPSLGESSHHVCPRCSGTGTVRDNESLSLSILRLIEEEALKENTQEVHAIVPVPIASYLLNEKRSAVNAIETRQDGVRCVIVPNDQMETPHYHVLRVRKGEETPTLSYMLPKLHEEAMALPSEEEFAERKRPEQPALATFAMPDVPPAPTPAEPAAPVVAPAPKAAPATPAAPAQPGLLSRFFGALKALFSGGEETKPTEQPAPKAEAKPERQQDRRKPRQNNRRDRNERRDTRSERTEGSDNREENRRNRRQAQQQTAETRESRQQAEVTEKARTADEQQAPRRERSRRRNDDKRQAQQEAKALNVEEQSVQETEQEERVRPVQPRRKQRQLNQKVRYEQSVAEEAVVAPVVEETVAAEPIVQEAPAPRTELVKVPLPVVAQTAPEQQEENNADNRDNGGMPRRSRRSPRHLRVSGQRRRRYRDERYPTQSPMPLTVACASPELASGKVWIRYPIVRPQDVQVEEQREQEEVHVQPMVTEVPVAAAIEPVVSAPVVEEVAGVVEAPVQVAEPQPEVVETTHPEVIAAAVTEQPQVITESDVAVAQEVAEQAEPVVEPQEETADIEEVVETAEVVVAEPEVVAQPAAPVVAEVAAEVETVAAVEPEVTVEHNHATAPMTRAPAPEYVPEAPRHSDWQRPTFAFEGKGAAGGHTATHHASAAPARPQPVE
RNase E(1–762), hexahistidine-tagged, coexpressed with RhlB (E. coli), sequence (P21513 1-762): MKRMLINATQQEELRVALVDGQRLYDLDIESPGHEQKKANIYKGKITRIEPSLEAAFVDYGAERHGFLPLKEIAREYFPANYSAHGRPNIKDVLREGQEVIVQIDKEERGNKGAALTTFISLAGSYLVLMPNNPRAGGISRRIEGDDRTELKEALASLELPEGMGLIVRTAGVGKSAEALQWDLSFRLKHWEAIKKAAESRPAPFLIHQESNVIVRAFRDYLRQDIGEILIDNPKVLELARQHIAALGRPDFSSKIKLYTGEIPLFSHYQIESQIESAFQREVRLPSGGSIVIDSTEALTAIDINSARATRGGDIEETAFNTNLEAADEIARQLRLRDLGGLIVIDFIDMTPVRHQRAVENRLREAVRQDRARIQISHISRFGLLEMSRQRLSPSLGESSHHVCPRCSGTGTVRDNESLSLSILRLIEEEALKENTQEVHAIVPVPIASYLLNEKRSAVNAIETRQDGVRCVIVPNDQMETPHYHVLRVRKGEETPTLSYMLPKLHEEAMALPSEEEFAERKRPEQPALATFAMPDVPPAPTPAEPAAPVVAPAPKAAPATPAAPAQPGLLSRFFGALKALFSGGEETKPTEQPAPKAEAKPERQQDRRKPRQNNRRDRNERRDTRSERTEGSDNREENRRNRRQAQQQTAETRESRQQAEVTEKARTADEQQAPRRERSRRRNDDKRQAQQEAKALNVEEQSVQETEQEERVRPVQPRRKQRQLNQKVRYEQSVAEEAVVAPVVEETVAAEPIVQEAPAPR

B1: RNA helicase B (RhlB), recombinant, coexpressed with RNase E from pRSF_rnerhlB (enzyme)
chain: T1 sequence
B1 was tested, and the stoichiometry N (RhlB protomer per RNase E protomer) [1] was 1.

B2: PNPase, endogenous, in the cell-extracted FLAG-tagged degradosome (enzyme)
chain: MLNPIVRKFQYGQHTVTLETGMMARQATAAVMVSMDDTAVFVTVVGQKKAKPGQDFFPLTVNYQERTYAAGRIPGSFFRREGRPSEGETLIARLIDRPIRPLFPEGFVNEVQVIATVVSVNPQVNPDIVAMIGASAALSLSGIPFNGPIGAARVGYINDQYVLNPTQDELKESKLDLVVAGTEAAVLMVESEAQLLSEDQMLGAVVFGHEQQQVVIQNINELVKEAGKPRWDWQPEPVNEALNARVAALAEARLSDAYRITDKQERYAQVDVIKSETIATLLAEDETLDENELGEILHAIEKNVVRSRVLAGEPRIDGREKDMIRGLDVRTGVLPRTHGSALFTRGETQALVTATLGTARDAQVLDELMGERTDTFLFHYNFPPYSVGETGMVGSPKRREIGHGRLAKRGVLAVMPDMDKFPYTVRVVSEITESNGSSSMASVCGASLALMDAGVPIKAAVAGIAMGLVKEGDNYVVLSDILGDEDHLGDMDFKVAGSRDGISALQMDIKIEGITKEIMQVALNQAKGARLHILGVMEQAINAPRGDISEFAPRIHTIKINPDKIKDVIGKGGSVIRALTEETGTTIEIEDDGTVKIAATDGEKAKHAIRRIEEITAEIEVGRVYTGKVTRIVDFGAFVAIGGGKEGLVHISQIADKRVEKVTDYLQMGQEVPVKVLEVDRQGRIRLSIKEATEQSQPAAAPEAPAAEQGE
For B2, the “PNPase component in aceE/aceF-null cells relative to wild-type control cells” value [2] was about 3 fold and the “stoichiometry N” value [2] was ~2 PNPase monomers per RNase E monomer.

B3: RNase E(628–843) (domain or fragment)
chain: ERTEGSDNREENRRNRRQAQQQTAETRESRQQAEVTEKARTADEQQAPRRERSRRRNDDKRQAQQEAKALNVEEQSVQETEQEERVRPVQPRRKQRQLNQKVRYEQSVAEEAVVAPVVEETVAAEPIVQEAPAPRTELVKVPLPVVAQTAPEQQEENNADNRDNGGMPRRSRRSPRHLRVSGQRRRRYRDERYPTQSPMPLTVACASPELASGKVW
B3: binds [3].
